The target of this experiment is T1, non-phosphorylated Tau (Tau-441 (2N4R), rPeptide LLC) (human, UniProt P10636 1-758).
T1 construct: also called non-phosphorylated Tau protein (2N4R); recombinant Tau
Nature of the experiment: sandwich ELISA: antigen captured by coated anti-Tau antibody BT2, detected with the peroxidase-labelled antibody at 80 ng/mL; antigen concentration varied. The protocol: Anti-Tau monoclonal antibody BT2 (Thermo Fisher Scientific) was adjusted with 50 mM Tris/HCl (pH 7.5) to a concentration of 1 microgram/mL, and then injected at 100 microliter/well in a Maxisorp cup (NUNC). The cup was placed in a humid box and coated overnight at 4 degrees Celsius. After the antibody solution was removed by aspiration, a blocking solution (5% skimmed milk (FUJIFILM Wako Pure Chemical), 50 mM Tris/HCl (pH 7.5), 150 mM NaCl, 0.1% sodium azide) was injected at 200 microliter/well, followed by blocking at room temperature for 2 hours or at 4 degrees Celsius for one day or more (hereinafter referred to as “BT2 cup”). The test recombinant antibodies: 5F6-4D1, 7G5-4B8, 2H8-1G7, 2H8-1G7(KC14S) and comparator antibodies: PT3 and anti-pT217 Tau polyclonal antibody (Genscript poly; Cat. No. A00896, Genscript) were labeled with peroxidase using a Peroxidase Labeling Kit-NH2 (DOJINDO MOLECULAR TECHNOLOGIES) in accordance with the instruction manual attached to the kit (hereinafter referred to as “peroxidase-labeled pT217 Tau antibodies”). […]

T1 sequence (P10636 other isoform, or with tags, fused parts or gaps limits assumed): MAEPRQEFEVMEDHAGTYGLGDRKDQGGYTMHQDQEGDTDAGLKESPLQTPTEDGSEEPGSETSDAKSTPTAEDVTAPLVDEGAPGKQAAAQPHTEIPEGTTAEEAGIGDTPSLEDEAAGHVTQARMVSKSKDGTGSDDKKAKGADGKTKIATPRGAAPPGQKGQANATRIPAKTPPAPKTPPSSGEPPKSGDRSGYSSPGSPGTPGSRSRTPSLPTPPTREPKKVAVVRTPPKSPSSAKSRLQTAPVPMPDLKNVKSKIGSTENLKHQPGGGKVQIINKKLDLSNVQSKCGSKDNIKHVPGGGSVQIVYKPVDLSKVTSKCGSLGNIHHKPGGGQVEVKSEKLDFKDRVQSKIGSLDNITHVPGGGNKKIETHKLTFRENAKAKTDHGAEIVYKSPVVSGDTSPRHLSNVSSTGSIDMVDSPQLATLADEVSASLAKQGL

B1: 2H8-1G7(KC14S) (antibody, mouse IgG2b, kappa, V domains shown)
VH: EVQLVESGGGLVKPGGSLKLSCAASGFTVSDYGMHWVRQAPEKGLEWIAYISSGSSTIYYVDTVKGRFTISRDNAKNTLFLQMTSLRSEDTAMYYCARRLSIWGTGTTVTVSS
VL: QIVLTQSPAIMSASPGEKVTMTCSASSSVSSMYWYHQKPGSSPRLLIYDTSNLASGVPVRFSGSGSGTSYSLTISRMEAEDAATYYCLQWSSYPLTFGAGTKLELKR
notes: Recombinant mouse IgG2b kappa
Turning to B1, the binding result was “no binding (tested: 80000 pg/mL)”.
